{"source": "patent US20230123431", "proteins": {"B1": {"name": "lipoamidase from Enterococcus faecalis (EfLPA) (protein)", "chain": "MLSLRQSIRFFKPATRTLCSSRYLLQQKPMLAQESILETTVQTETESVTTETSQTVANLESETTSQTVMQEKESSSAIAESSSRNVVAVTTETTNEIQNSGTDGKAVSAESVFSEADYKQATALELATLVREKKVTSEELVKIALAITKRENPTLNAVITLREEAALTEAKALQDTGQPFLGVPLLLKGLGQSLKGESNTNGFGFLRDQVAGGTSTFVKALQNAGFIIIGQTNYPELGWKNISDSKLYGVSVNPWNPNHYSGGSSGGAGASVAAAFVPIASGSDAGGSIRIPASWTGTVGLKPSRGVIIGNSNSAKGQTVHFGLSRTVADTNALFETLLTKKDLPAGHLSQAQPIAYTTESPAGTPVSAEAKEAVAEAVAFLKDQGYTLVEVKHPVDGERLMKNYYTVAAGSAGIADFMARQKLKRPLERNDVELLTWALFQTGKNITSEETTAAWTDIALQAQAMDEFYQQYPILLTPTTAATAPSIDNPLLKPEHAAQMEKIDQLSPAEQKQLIYDQWLTAFTYTPFTQQANLFGHPALSVPTYVSKEGLPLGIQFNSALNEDRTLLQLGALFENNHKINQPHVEEPDKDKEPDASGEPEKDKDPNASGEPDKDKEPDASGEPDKDKEPDASGEPDKDKEPDASGKPDKDKETKTSEGPIEGKDQNQNPDKAGKTTSGSSLDNSLNSSANQGTKSTESTHAFSNKSMIGKQEQLPKKVLPKAGAEVPSTFWIVLGGAFLVTSGTIYIRKTRKHHHHHHHHHHHH"}}, "key": {"[1]": {"molecular_target": "T1, Kgd2p (lipoate-bound subunit of alpha-ketoglutarate dehydrogenase, KGDC), P19262", "T1 chain": "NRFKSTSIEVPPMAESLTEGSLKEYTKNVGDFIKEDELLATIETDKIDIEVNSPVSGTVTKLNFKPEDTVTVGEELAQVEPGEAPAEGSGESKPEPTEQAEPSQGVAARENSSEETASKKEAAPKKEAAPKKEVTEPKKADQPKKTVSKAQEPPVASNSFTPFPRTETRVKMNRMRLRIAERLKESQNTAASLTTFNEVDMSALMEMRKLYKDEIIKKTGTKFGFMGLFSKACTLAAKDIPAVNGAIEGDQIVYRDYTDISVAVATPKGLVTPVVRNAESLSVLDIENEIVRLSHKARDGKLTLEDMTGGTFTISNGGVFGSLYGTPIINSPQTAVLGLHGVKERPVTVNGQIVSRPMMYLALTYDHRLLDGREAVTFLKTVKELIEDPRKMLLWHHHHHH"}, "[2]": {"molecular_target": "T2, Lat1p (lipoate-bound subunit of pyruvate dehydrogenase, PDH), P12695", "T2 chain": "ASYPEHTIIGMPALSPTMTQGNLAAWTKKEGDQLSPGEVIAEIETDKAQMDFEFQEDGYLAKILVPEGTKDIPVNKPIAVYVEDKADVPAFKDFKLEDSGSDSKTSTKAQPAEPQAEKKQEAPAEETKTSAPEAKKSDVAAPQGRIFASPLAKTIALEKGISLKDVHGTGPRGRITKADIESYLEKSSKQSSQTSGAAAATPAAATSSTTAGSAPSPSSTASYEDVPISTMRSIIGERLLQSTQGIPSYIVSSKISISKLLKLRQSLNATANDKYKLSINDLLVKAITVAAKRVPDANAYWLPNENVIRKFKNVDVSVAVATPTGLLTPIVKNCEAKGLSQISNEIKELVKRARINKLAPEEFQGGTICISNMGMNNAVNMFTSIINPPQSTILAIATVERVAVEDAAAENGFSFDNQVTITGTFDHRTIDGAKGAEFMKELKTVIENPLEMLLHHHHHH"}, "[3]": {"molecular_target": "T3, Gcv3p (H protein of the glycine cleavage system), lipoylated", "T3 chain": "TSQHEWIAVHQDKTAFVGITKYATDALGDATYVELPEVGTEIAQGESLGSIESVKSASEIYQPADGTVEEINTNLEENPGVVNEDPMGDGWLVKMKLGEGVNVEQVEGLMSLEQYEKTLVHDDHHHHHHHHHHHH"}}, "data": [{"protein": "B1", "values": [{"measurement": "lipoic acid released (LC-MS/MS) after incubation of the purified proteins at 37 C for 2 h", "setting": "[1]", "result": "no lipoic acid was observed in the reaction mixtures containing EfLPA with Kgd2p or Lat1p individually"}, {"measurement": "lipoic acid released (LC-MS/MS) after incubation of the purified proteins at 37 C for 2 h", "setting": "[2]", "result": "no lipoic acid was observed in the reaction mixtures containing EfLPA with Kgd2p or Lat1p individually"}, {"measurement": "lipoic acid released (LC-MS/MS, confirmed by GC-MS) after incubation of the purified proteins at 37 C for 2 h", "setting": "[3]", "result": "Only the reaction of EfLPA with Gcv3p resulted in a peak with m/z 205.0360 (FIG. 5B) indicative of lipoic acid"}]}]}
